Reference: patent publication US8623997B2, “Variant Hhip1 protein and methods and uses thereof” (Curis, Inc., priority 2008, dated 2014)
Substitutions are numbered along the chain they refer to. In names and notes the source's numbering stands.

B1: Hhip1β1: β-propeller-EGF1 construct (SEQ ID NO:13), residues 193-637 of SEQ ID NO:2 (protein, listed as Homo sapiens)
chain: SNYLDQMEEYDKVEEISRKHKHNCFCIQEVVSGLRQPVGALHSGDGSQRLFILEKEGYVKILTPEGEIFKEPYLDIHKLVQSGIKGGDERGLLSLAFHPNYKKNGKLYVSYTTNQERWAIGPHDHILRVVEYTVSRKNPHQVDLRTARVFLEVAELHRKHLGGQLLFGPDGFLYIILGDGMITLDDMEEMDGLSDFTGSVLRLDVDTDMCNVPYSIPRSNPHFNSTNQPPEVFAHGLHDPGRCAVDRHPTDININLTILCSDSNGKNRSSARILQIIKGKDYESEPSLLEFKPFSNGPLVGGFVYRGCQSERLYGSYVFGDRNGNFLTLQQSPVTKQWQEKPLCLGTSGSCRGYFSGHILGFGEDELGEVYILSSSKSMTQTHNGKLYKIVDPKRPLMPEECRATVQPAQTLTSECSRLCRNGYCTPTGKCCCSPGWEGDFCRTA
B2: Hhip1ECD: Hhip1 extracellular domain construct (SEQ ID NO:11), residues 20-667 of SEQ ID NO:2 (protein, listed as Homo sapiens)
chain: SNYLDQMEEYDKVEEISRKHKHNCFCIQEVVSGLRQPVGALHSGDGSQRLFILEKEGYVKILTPEGEIFKEPYLDIHKLVQSGIKGGDERGLLSLAFHPNYKKNGKLYVSYTTNQERWAIGPHDHILRVVEYTVSRKNPHQVDLRTARVFLEVAELHRKHLGGQLLFGPDGFLYIILGDGMITLDDMEEMDGLSDFTGSVLRLDVDTDMCNVPYSIPRSNPHFNSTNQPPEVFAHGLHDPGRCAVDRHPTDININLTILCSDSNGKNRSSARILQIIKGKDYESEPSLLEFKPFSNGPLVGGFVYRGCQSERLYGSYVFGDRNGNFLTLQQSPVTKQWQEKPLCLGTSGSCRGYFSGHILGFGEDELGEVYILSSSKSMTQTHNGKLYKIVDPKRPLMPEECRATVQPAQTLTSECSRLCRNGYCTPTGKCCCSPGWEGDFCRTAKCEPACRHGGVCVRPNKCLCKKGYLGPQCE
B3: T418A: L3 loop single alanine variant made in the Hhip1β12 construct (protein)
chain: SNYLDQMEEYDKVEEISRKHKHNCFCIQEVVSGLRQPVGALHSGDGSQRLFILEKEGYVKILTPEGEIFKEPYLDIHKLVQSGIKGGDERGLLSLAFHPNYKKNGKLYVSYTTNQERWAIGPHDHILRVVEYTVSRKNPHQVDLRTARVFLEVAELHRKHLGGQLLFGPDGFLYIILGDGMITLDDMEEMDGLSDFTGSVLRLDVDTDMCNVPYSIPRSNPHFNSANQPPEVFAHGLHDPGRCAVDRHPTDININLTILCSDSNGKNRSSARILQIIKGKDYESEPSLLEFKPFSNGPLVGGFVYRGCQSERLYGSYVFGDRNGNFLTLQQSPVTKQWQEKPLCLGTSGSCRGYFSGHILGFGEDELGEVYILSSSKSMTQTHNGKLYKIVDPKRPLMPEECRATVQPAQTLTSECSRLCRNGYCTPTGKCCCSPGWEGDFCRTAKCEPACRHGGVCVRPNKCLCKKGYLGPQCEHHHHHH
B4: E381A: L2 loop single alanine variant made in the Hhip1β12 construct (protein)
chain: B3 chain with E189A, A226T
B5: Q420A: L3 loop single alanine variant made in the Hhip1β12 construct (protein)
chain: B3 chain with A226T, Q228A
B6: D378A: L2 loop single alanine variant made in the Hhip1β12 construct (protein)
chain: B3 chain with D186A, A226T
B7: I312A: L1 loop single alanine variant made in the Hhip1β12 construct (protein)
chain: B3 chain with I120A, A226T
B8: M382A: L2 loop single alanine variant made in the Hhip1β12 construct (protein)
chain: B3 chain with M190A, A226T
B9: D387A: L2 loop single alanine variant made in the Hhip1β12 construct (protein)
chain: B3 chain with D195A, A226T
B10: E380A: L2 loop single alanine variant made in the Hhip1β12 construct (protein)
chain: B3 chain with E188A, A226T
B11: D383A: L2 loop single alanine variant made in the Hhip1β12 construct (protein)
chain: B3 chain with D191A, A226T

target: T1, biotinylated-ShhN-Cys (Homo sapiens, UniProt Q15465); test: Bio-layer interferometry (Octet) binding kinetics of Hhip1β12 variants to Shh; conditions: 10 mM EDTA
T1 construct: ShhN-Cys (residues 24-197); His6 (N); made in house; host or cells: E. coli Rosetta 2
Method: The binding kinetics of the Hhip1β12 fragments as well as Hhip1β12 mutants were measured by bio-layer interferometry in the presence or absence of 10 mM EDTA on an Octet (Fortébio). Streptavidin high binding FA biosensors were loaded with biotinylated-ShhN-Cys in kinetic buffer (Fortébio). The loaded biosensors were washed and transferred to wells containing Hhip1β12 protein at concentrations of 1.2, 1.0, 0.8 and 0.6 μM in kinetic buffer. Hhip1β12 association and dissociation was measured for 30 and 20 min, respectively. Kinetic parameters (kon and koff) and affinities (KD) were calculated from a non-linear fit of the data based on a 1:1 binding model between Hhip1β12 and Shh using the Octet software. Multiple independent measurements were performed.
In order to assess the contribution of residues in the Hhip1 L1, L2 and L3 loops for binding to Shh, a series of single alanine Hipβ12 mutants were made using the QuickChange DNA mutagenesis kit (Stratagene) using the manufacturer's protocol, and their affinity for Shh was measured by bio-layer interferometry (as described in Example 2B). These mutations included Hhip1β12 mutants 1312A, E381A, M382A, D383A, D378A, T418A, Q420A, E380A, D387A and ΔL2.

| Molecule | binding to Shh in the presence of EDTA |
| --- | --- |
| B1 | completely abolished |

same assay, conditions: 1:1 binding model; n.d stands for no binding detected

| Molecule | Kd | koff × 10^−4 | kon × 10^3 |
| --- | --- | --- | --- |
| B1 | 150 nM | 2.3 × 10^−4 [s^−1] | 1.5 × 10^3 [M^−1 × s^−1] |
| B2 | 67 nM | 7.9 × 10^−4 [s^−1] | 1.2 × 10^3 [M^−1 × s^−1] |
| B3 | 270 nM | 9.0 × 10^−4 [s^−1] | 3.4 × 10^3 [M^−1 × s^−1] |
| B4 | 300 nM | 3.3 × 10^−4 [s^−1] | 1.1 × 10^3 [M^−1 × s^−1] |
| B5 | 500 nM | 11.0 × 10^−4 [s^−1] | 2.1 × 10^3 [M^−1 × s^−1] |
| B6 | 2400 nM | 3.6 × 10^−4 [s^−1] | 0.15 × 10^3 [M^−1 × s^−1] |
| B7 | 320 nM | 4.8 × 10^−4 [s^−1] | 1.5 × 10^3 [M^−1 × s^−1] |

same assay, conditions: bio-layer interferometry, compared with WT Hhip1β12

| Molecule | Shh binding of Hhip1β12 mutants (in words) |
| --- | --- |
| B3 | little effect on Shh |
| B8 | abolished binding to Shh |
| B9 | abolished binding to Shh |
| B5 | little effect on Shh |
| B10 | minor to moderate effects on Shh binding |
| B11 | inability |
| B6 | minor to moderate effects on Shh binding |

same assay, conditions: bio-layer interferometry, compared with WT Hhip1β12; listed as 1312A

| Molecule | Shh binding of Hhip1β12 mutants (in words) |
| --- | --- |
| B7 | little effect on Shh |

same assay, conditions: bio-layer interferometry, compared with WT Hhip1β12; listed as E380

| Molecule | Shh binding of Hhip1β12 mutants (in words) |
| --- | --- |
| B10 | abolished binding to Shh |

test system: Shh signaling; test: Gli-luciferase co-culture signaling assay (S12 fibroblasts overlaid with Shh-producing HT29 cells); format: cell-based, murine S12 fibroblasts / human HT29 cells; conditions: Gli-luciferase co-culture
Description: Due to the lack of both N- and C-terminal lipid modifications of Shh and the absence of other cellular components, the in vitro assays may not fully recapitulate Hip-Shh interactions occurring in a cellular environment. Therefore, a co-culture assay consisting of murine S12 fibroblasts stably transfected with a Gli luciferase reporter gene and (Frank-Kamenetsky et al. (2002) J. Biol. 1:10) and human colorectal adenocarcinoma HT29 cells that secrete fully lipid-modified Shh (Yauch et al. (2008) Nature 455:406) was used to determine which extracellular domains of Hhip1β12 mediate inhibition of Shh signaling in mammalian cells.
Briefly, S12 cells, which are 10T1/2 fibroblasts stably transfected with 8× Gli-binding sites fused to a luciferase reporter (Frank-Kamenetsky et al. (2002) J. Biol. 1:10), were plated at 10,000 cells/well of a white-walled clear bottomed 96-well plate (Costar 3610) for […] in regular growth medium (HG-DMEM, 10% FBS, 1% glutamine). After 24 h, the media was removed and Shh-producing HT29 cells at 20,000 cells/well were plated and the co-culture was grown in regular media. After 24 h, the media was changed to 0.5% serum HG-DMEM±Hhip1β12 fragments and further incubated for 24 hrs to stimulate signaling. Gli-luciferase activity was measured using a HTS-Steady Lite luciferase detection kit (Perkin Elmer); multiple assays were carried out, each in triplicate. Data were fit to a 4-parameter sigmoidal equation, from which the IC50 was derived using Kaleidagraph (Synergy Software).

| Molecule | IC50 fold higher than Hhip1ECD | inhibitory activity (in words) |
| --- | --- | --- |
| B1 | about 4 fold |  |
| B11 |  | retained activity |
| B7 |  | essentially identical to wildtype Hhip1β12 |

same assay, conditions: Gli-luciferase co-culture, 24 hrs; read-out: IC50 inhibition of Shh signaling

| Molecule | IC50 |
| --- | --- |
| B1 | 20.3 nM |
| B2 | 5.3 nM |

same assay, conditions: at saturating conditions

| Molecule | maximal inhibition |
| --- | --- |
| B11 | ~85% |
